# Experimental data as given in patent publication US7384773B1, “Crystal of HIV protease-cleaved human beta secretase and method for crystallization thereof” (Pfizer Inc, priority 2001, dated 2008).
# B1: HIV-1 protease treated beta secretase: CHO cell expressed recombinant human beta secretase proteolytically cleaved with HIV protease (N-terminus V40), used for crystallization (protein)
# chain: VEMVDNLRGKSGQGYYVEMTVGSPPQTLNILVDTGSSNFAVGAAPHPFLHRYYQRQLSSTYRDLRKGVYVPYTQGKWEGELGTDLVSIPHGPNVTVRANIAAITESDKFFINGSNWEGILGLAYAEIARPDDSLEPFFDSLVKQTHVPNLFSLQLCGAGFPLNQSEVLASVGGSMIIGGIDHSLYTGSLWYTPIRREWYYEVIIVRVEINGQDLKMDCKEYNYDKSIVDSGTTNLRLPKKVFEAAVKSIKAASSTEKFPDGFWLGEQLVCWQAGTTPWNIFPVISLYLMGEVTNQSFRITILPQQYLRPVEDVATSQDDCYKFAISQSSTGTVMGAVIMEGFYVVFDRARKRIGFAVSACHVHDEFRTAAVEGPFVTLDMEDCGYNIPQTDESHHHHHH
# Biological target: T1, beta secretase (Homo sapiens, UniProt P56817)
# T1 construct: made in house; host or cells: CHO-K1 cells (secreted, glycosylated)
# Assay: beta secretase enzymatic activity assayed by HPLC analysis of the products
# Format: biochemical
# Conditions: CHO cell derived human beta secretase cleaved at F39-V40 by HIV-1 protease and purified, compared with non-treated beta secretase
# Description: Purified HIV-1 protease treated (and non-treated) beta secretase were assayed for activity by HPLC analysis of the products.
molecule,measurement,value
B1,more enzymatic activity than non-treated (unprocessed) beta secretase,10-20%
